According to the supplement of paper PMC11811203:

B1: THAP1; numbered along this chain (parent)
chain: MVQSCSAYGCKNRYDKDKPVSFHKFPLTRPSLCKEWEAAVRRKNFKPTKYSSICSEHFTPDCFKRECNNKLLKENAVPTIFLCTEPHDKKEDLLEPQEQLPPPPLPPPVSQVDAAIGLLMPPLQTPVNLSVFCDHNYTVEDTMHQRKRIHQLEQQVEKLRKKLKTAQQRCRRQERQLEKLKEVVHFQKEKDDVSERGYVILPNDYFEIVEVPA

Variants of: B1
Experiment: THAP1 transcriptional activity (GFP+/GFP- enrichment relative to wild-type constructs) (ratio to WT); higher = more THAP1 activity (PSMB5 reporter activation)
Settings: with PSMB5 promoter-GFP reporter
Method in brief: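 Variants were counted by Illumina sequencing of genomic DNA amplicons from BFP+ cells sorted into GFP-bright and GFP-dim bins five days after lentiviral transduction, in duplicate at MOI ~0.3. The library changed each of residues 2–213 of human THAP1 to all 20 amino acids and was introduced into THAP1-knockout HEK-293T cells with mClover3 knocked in at endogenous PSMB5. Activity equals the replicate-mean bright/dim read fold change over the mean of wild-type synonymous constructs.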

Variant	THAP1 transcriptional activity
L105E	1.27
L105C	1.32
L123Q	0.814
L123E	1.45
L123G	0.957
L123H	1.24
R175E	0.554
V156S	0.331
V156I	0.548
R41A	1.37
R41W	0.182
R41G	1.52
R41T	0.171
E178V	0.568
E178M	0.795
F186W	1.1
F186L	1.31
F186A	1.67
K158V	0.617
S110T	0.793
A76D	0.209
P86S	0.97
Y137N	0.195
Y137T	0.136

Variant	THAP1 transcriptional activity
K161S	0.639
K161G	0.289
K161R	0.649
Q167H	0.575
Q167R	0.415
Q167W	0.235
L72K	0.0937
L177S	0.206
L177D	0.233
L177K	0.328
L177F	0.408
G9W	0.167
G9M	0.381
M120E	1.25
Q155C	0.531
Q155N	0.447
Q155V	0.773
Q155I	0.473
K43Y	0.365
K43Q	1.02
K147I	0.346
K147H	0.438
K147F	0.361
E74S	0.604

Variant	THAP1 transcriptional activity
R13L	0.229
R13F	0.14
R13Q	0.122
K164R	1.17
K164H	0.316
H57K	0.126
H57T	0.109
Y50H	0.759
Y50N	0.389
C10T	0.0641
C10Y	0.106
P19F	0.276
P19T	0.681
R172F	0.247
H23T	0.0534
A213R	0.843
A213G	0.677
P104V	2.16
P104E	1.85
P104D	6.01
K190H	0.708
K190M	0.557
E189S	1.03
E189R	0.881

Variant	THAP1 transcriptional activity
E189P	0.761
E189K	1.1
I116L	0.739
P202I	0.585
P202R	0.824
V77S	0.41
V112S	1.12
V112M	1.24
V112G	1.11
P26R	0.098
L93G	1.26
L93Q	1.67
K34S	0.646
K34Y	0.316
K34C	0.284
L129A	0.855
L129C	0.646
E95V	0.815
K179A	0.727
K179V	0.388
G117W	0.261
G117K	0.256
E66W	1.25
E66T	1.3

Variant	THAP1 transcriptional activity
E66P	0.346
Y198D	0.763
K181T	0.491
K181E	0.582
K181M	0.542
L159R	0.193
L159D	0.213
P107E	1.58
K18M	0.186
K18G	0.258
Q124T	0.351
T165E	0.6
V127G	0.609
V127S	1.39
E85T	0.594
Q145G	0.569
Q145N	0.719
Q145E	0.577
S4Q	0.114
S4E	0.103
S4D	0.154
N12E	0.111
N12L	0.0949
D134N	0.121

Variant	THAP1 transcriptional activity
D134R	0.265
D134T	0.354
D134F	0.144
D134M	0.159
E98F	0.462
E98Q	1.69
E98R	0.908
R42I	0.181
R42P	0.0977
R42E	0.118
R42M	0.0797
V184C	0.742
V184G	1.29
R171D	0.228
R171G	0.285
R171N	0.229
V209E	0.612
V209R	0.953
L100S	2.08
A114L	0.635
A114T	1.27
A114I	0.238
P103E	1.22
P103Q	1.15

Variant	THAP1 transcriptional activity
P122E	0.885
P106H	0.72
D17A	1.12
D17Y	0.747
T48M	0.138
T48A	0.107
D192S	0.615
L118K	0.884
L118N	2.21
L118F	1.09
L118Q	1.04
P96N	2.72
E91P	0.793
E91S	1.71
Q173V	1.27
Q173W	0.284
A39P	0.143
C83M	0.953
E195K	1.37
Q97D	1.45
H150P	0.317
N44M	0.177
N44D	1.16
